Earlier results on one substance are cited in PMC2805756.

Some results are limits rather than exact numbers.

The data set has as its target His107 (UniProt position 107, SSGMIHLLVQV). Nature of the data set: kinetics. Particulars: free wild-type enzyme (thiolate-imidazolium ion pair).

The pKa is the negative logarithm of the acid dissociation constant. Regarding “Arylamine N-acetyltransferase 2 (hamster NAT2), wild type (Mesocricetus auratus (the article says only 'hamster'))”, the pKa is given as greater than 9.5.
